Assays:
[1] = test system: SCD; test: SCD enzyme activity in heart microsomes of leptin-treated ob/ob mice; type: in vivo, mouse; conditions: leptin 12 days, [1-14C]stearoyl-CoA substrate, elevated 3-fold in untreated ob/ob
Description: (§1) A, SCD activity: Microsomes were prepared from hearts of PBS-treated, ob/ob, ob/ob pair-fed (PF), and leptin-treated (ob/ob-Leptin) mice, and SCD enzyme activity was determined by measuring the incorporation of radioactivity in oleoyl-CoA using [1-^14C]stearoyl-CoA as a substrate. The reaction products were separated by TLC, and the radioactivity was quantitated. Each value represents the mean±S.E. (n=4). B, Levels of monounsaturated fatty acids in the hearts of ob/ob mice: Total fatty acids were extracted from heart of ob/ob mice treated with either leptin or PBS and wild type controls quantitated by GLC as described in the example below. *, p<0.05 versus wt-PBS; #,p<0.05 versus ob/ob-PBS. C, Total RNA was prepared from hearts of PBS or leptin-treated ob/ob mice and used to measure SCD1, SCD2, and SCD4 mRNA levels by quantitative RT-PCR analysis. The fold change relative to that of wild type was calculated after correction for the levels of cyclophilin used as a standard. Each value represents the mean±S.E. (n=4).
(§2) Subcutaneous Leptin Treatment—ob/ob mice were individually caged and allowed to acclimate for a number of days prior to the start of the experiment. […] Body mass and food intake were measured daily. […]

[2] = test system: ob/ob mice; test: monounsaturated fatty acid content of hearts of leptin-treated ob/ob mice by GLC; type: in vivo, mouse; conditions: leptin treatment, GLC of total fatty acids
Description: as §1, with “standard. […]” for “standard. Each value represents the mean±S.E. (n=4).”
as §2
ob/ob mice have a mutation in the leptin gene and are a model of obesity, insulin resistance, and diabetes. […] To determine which SCD isoform(s) accounted for these effects, we measured RNA levels of mSCD1, mSCD2, and mSCD4. […]

B1: leptin: recombinant mouse leptin (Amgen, Thousand Oaks, Calif.) (protein, UniProt P41160 22-167, looked up)
Leptin: VPIQKVQDDTKTLIKTIVTRINDISHTQSVSAKQRVTGLDFIPGLHPILSLSKMDQTLAVYQQVLTSLPSQNVLQIANDLENLRDLLHLLAFSKSCSLPQTSGLQKPESLDGVLEASLYSTEVVALSRLQGSLQDILQQLDVSPEC
- SCD activity in heart [1]: completely normalized to wild type levels
- 18:1 content of heart [2]: reduced to levels comparable with those in wild type mice

— US7285395B2, “Stearoyl-CoA desaturase 4 gene” (Wisconsin Alumni Research Foundation, priority 2004, dated 2007)
